{"source": "patent US20080249004A1", "target": "NCAM Ig1-2-3 fragment (recombinant rat NCAM residues 1-289, deglycosylated) (rat)", "test": "dynamic light scattering, 4 mg/ml in PBS pH 7.4, 18 C; self-association"}
{"substance": "NCAM Ig1-2-3 fragment (recombinant rat NCAM residues 1-289, deglycosylated) (from UniProt P13595 20-308)", "values": [{"measurement": "molecular weight in solution (DLS)", "result": 78, "unit": "kDa"}]}
